The values that follow come from paper PMC9195068, “The action of Con-ikot-ikot toxin on single AMPA-type glutamate receptors” (The Journal of General Physiology, 2022).

As usually defined, the stoichiometry N is a count of units in the complex or per binding partner.

This series deals with the molecule itself. Briefly: non-reducing SDS-PAGE.

B1: Con-ikot-ikot toxin (natural protein)
chain: SGPADCCRMKECCTDRVNECLQRYSGREDKFVSFCYQEATVTCGSFNEIVGCCYGYQMCMIRVVKPNSLSGAHEACKTVSCGNPCA
notes: also called CII; CII toxin
As to B1, the “stoichiometry N” value was 2.
